Experimental data taken from patent US20240417762A1, “MICROORGANISMS AND METHODS FOR PRODUCING REUTERIN” (Wisconsin Alumni Research Foundation, priority 2023, published 2024).

B1: Orf14-mucosae: Limosilactobacillus mucosae Orf14 protein (SEQ ID NO:4), natural homolog, codon optimized for expression in L. reuteri (protein, listed as Lactobacillus mucosae)
chain: MKRVKELCKKYQQVIYTLLAVVAIVGVVYFALHGFNSFIKWATTDVGSVADWAGSIGTILAFIAVIWQQGRQENITRAVHVEESRPRFSVTYTPKPQAKTKMLFWGNNRTLSQINTMLNNRNGENYRFINIENISNNVVYDYSIILKYHFYDNSLVRKDYWSSHGLFPRRSIIIVPKFLGTGKDKIGNYIYDELLIKFTTPANEIGFFKMTNVNGNRTDSSFGDSQYYFVRGSHIKRVTAINTDEMIKADSPLCRKLDREFSETTGGTNFGAIGEDGKAY
B2: Orf14: Limosilactobacillus reuteri Orf14 phage protein (SEQ ID NO:2), overexpressed from pSIP-orf14 (protein, listed as Lactobacillus reuteri)
chain: VIYMNKIKRLCKKYQQVIYTLFAVLVIISVVYFALHGFDSFVKWATTDVGSVADWAGSIGTILAFVAVIWQQGRQENITRAVHIEESRPRFSLTYTPKPVLKTRVLFWGNGRTAVNINEILGSRSAENYRFISIENISNNVVYDYSIILKYHSNDNARVRKDYWSSHGLFPRRSVAIVPKFMGTDKDKIGNYIYDELLVKFTTPANEVGFFISKNINNAQTDSSFGKSQYYFVRGSHVKRVTAINTDKMIDVDSSICRKLDKEFDEIIGITSLGEINENGKLS

System: reuterin production
Experiment: Determination of reuterin formation during growth of L. reuteri ATCC PTA-6475 and its variants
Format: cell-based, Limosilactobacillus reuteri
Protocol: FIGS. 5A-5E. Reuterin production of L. reuteri ATCC PTA-6475 and its variants during the growth. Overnight cells were inoculated to reach an initial OD 0.1 in mMRS supplemented with 100 mM glucose and 40 mM glycerol. Supernatant was collected every hour during the growth at 37° C. and the reuterin concentrations were determined. The number of cells of each strain at each time point was normalized to an OD of 3. Data are shown as means±standard deviations for three independent experiments. Statistical significance was determined by unpaired t-test. * P<0.05; **** P<0.0001. In FIGS. 5C and 5D, “orf14” refers to orf14 from L. reuteri. In FIG. 5E, the origins of the orf14 genes (L. mucosae or L. reuteri) are indicated.
To characterize the reuterin production during growth, strains were cultured at 37° C. anacrobically in deMan-Rogosa-Sharpe medium (MRS; 288110, BD BioSciences) for 18 h, and then bacteria were sub-cultured to reach an initial OD600 of 0.1 in modified MRS (10 g peptone, 10 g beef extract, 5 g yeast extract, 2 g ammonium citrate dibasic, 2 g K2HPO4, 0.1 g MgSO4, 0.05 g MnSO4, and 1.0 g Tween 80 per liter) supplemented with 100 mM glucose. Cultures were incubated anaerobically at 37° C. Strains harboring pSIP411 or its variants were grown in mMRS supplemented with 5 μg/mL erythromycin. Where applicable, induction peptide (10 ng/ml) (MAGNSSNFIHKIKQIFTHR (SEQ ID NO:34)) was added. Samples were collected every hour up to 8 hours. Cell density was monitored using GENESYS 20 visible spectrophotometer (Thermo Scientific) and reuterin production was measured as described in Zhang et al. 2020. Briefly, cell-free supernatants (50 μL) were mixed with 37.5 μL tryptophan (Sigma-Aldrich) in a 96 well plate, followed by an addition of 150 μL 37% HCl (Thermo scientific). After incubating at 37° C. for 20 min, OD560 was measured by GloMax plate reader (Promega). Two-fold dilutions of acrolein (06-722-501, ThermoFisher) were used to generate a standard curve to quantify reuterin (Doleyres et al. 2005). […]

| Molecule | higher reuterin production compared to the overexpression of native Orf14 (overexpression in L. reuteri (FIG. 5E)) [fold] | increase in reuterin production compared to that in the wildtype strain (Orf14 overexpressed in L. reuteriΔΦ1ΔΦ2, following 5 h incubation, P<0.05) [fold] | reuterin production (growth at 37° C. in mMRS with 100 mM glucose and 40 mM glycerol, supernatant, normalized to OD 3) |
| --- | --- | --- | --- |
| B1 | 2.9 | – | – |
| B2 | – | 3 | rescued reuterin production |
